The RNAGym collection of RNA variant scans (doi:10.1093/molbev/msab373)

B1: Azoarcus group I ribozyme (parent)
chain: GUGCCUUGCGCCGGGAAACCACGCAAGGGAUGGUGUCAAAUUCGGCGAAACCUAAGCGCCCGCCCGGGCGUAUGGCAACGCCGAGCCAAGCUUCGGCGCCUGCGCCGAUGAAGGUGUAGAGACUAGACGGCACCCACCUAAGGCAAACGCUAUGGUGAAGGCAUAGUCCAGGGAGUGGCGAAAGUCACACAAACCGG

Variants of: B1
Assay: reverse-splicing fitness (ratio to wild type); higher = more active; in vitro selection; Mg2+ level not given
Summary of the method: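 An in vitro group I ribozyme library with randomized positions was T7-transcribed and gel-purified. In triplicate, 10 pmol RNA in EPPS pH 7.5 was reacted with 50 pmoles of a 30-nt RNA substrate for 1 h at 37 °C across several added MgCl2 levels (1–48 mM), then stopped with EDTA. Products were reverse transcribed from a substrate-complementary primer, PCR-amplified and sequenced (HiSeq 4000). Fitness is a variant's read proportion after selection over that before, normalised to wild type.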
For C82G A111U A120G A145C C150U U176C, the reverse-splicing fitness was 0.012. For C82G A111U A120G A145C C150U U176A, the reverse-splicing fitness was 0.00941. Variant C82G A111U A120U A145C has a reverse-splicing fitness of 0.0386. C82G A111U A120G A145C C150A C169G gave a reverse-splicing fitness of 0.00827. For C82G A111U A120G A145C C150A C169U, the reverse-splicing fitness was 0.00694. C82G A111U A120G A145C C150A C169A showed a reverse-splicing fitness of 0.00828. Variant C82G A111U A120G C150U C169G U176C has a reverse-splicing fitness of 0.0205. Work on C82G A111U A120G C150U C169G U176A yielded a reverse-splicing fitness of 0.0168. For C82G A111U A120G C150U C169G U176G, the reverse-splicing fitness was 0.0053. With C82G A111U A120G C150A C169G the reverse-splicing fitness was 0.0106. For C82G A111U A120G C150A C169U, the reverse-splicing fitness was 0.00827. C82G A111U A120G C150A C169A showed a reverse-splicing fitness of 0.0117. For C82G A111U A120U A145C C169A U176C, the reverse-splicing fitness was 0.00232. With C82G A111U A120U A145C C169A U176A the reverse-splicing fitness was 0.00191. For C82G A111U A120U A145C C169A U176G, the reverse-splicing fitness was 0.00205. With C82G A111U A120U A145C C150G U176A the reverse-splicing fitness was 0.00296. Work on C82G A111U A120U A145C C150G U176G yielded a reverse-splicing fitness of 0.00236. C82G A111U A120U A145C C150G U176C showed a reverse-splicing fitness of 0.00425. For C82G A111U A120G A145G C150A C169G U176G, the reverse-splicing fitness was 0.0053. Work on C82G A111U A120G A145G C150A C169G U176C yielded a reverse-splicing fitness of 0.025. Variant C82G A111U A120G A145G C150A C169G U176A has a reverse-splicing fitness of 0.0165. C82G A111U A120G A145C C150G C169A U176A gave a reverse-splicing fitness of 0.00745. Work on C82G A111U A120G A145C C150G C169A U176C yielded a reverse-splicing fitness of 0.0077. C82G A111U A120G A145C C150G C169A U176G showed a reverse-splicing fitness of 0.00582. C82G A111U A120U A145C C150U U176C showed a reverse-splicing fitness of 0.00545. For C82G A111U A120U A145C C150U U176A, the reverse-splicing fitness was 0.00477. In the case of C82G A111U A120U A145C C150U U176G, the reverse-splicing fitness is reported as 0.00297. With C82G A111U A120U A145C C169G U176G the reverse-splicing fitness was 0.00158. Variant C82G A111U A120U A145C C169G U176C has a reverse-splicing fitness of 0.00219. C82G A111U A120U A145C C169G U176A showed a reverse-splicing fitness of 0.00225. Work on C82G A111U A120G A145C C150G C169U U176G yielded a reverse-splicing fitness of 0.00569. With C82G A111U A120G A145C C150G C169U U176C the reverse-splicing fitness was 0.0123. Variant C82G A111U A120G A145C C150G C169U U176A has a reverse-splicing fitness of 0.0121. C82G A111U A120U A145C C150A C169A U176C showed a reverse-splicing fitness of 0.00215. Variant C82G A111U A120U A145C C150A C169A U176G has a reverse-splicing fitness of 0.0022. Work on C82G A111U A120U A145C C150A C169A U176A yielded a reverse-splicing fitness of 0.00214. With C82G A111U A120G A145C the reverse-splicing fitness was 0.0134. With C82G A111U A120G A145G the reverse-splicing fitness was 0.0151. Work on C82G A111U A120G A145U yielded a reverse-splicing fitness of 0.0161. With C82G A111U A120G A145C C150A U176A the reverse-splicing fitness was 0.00962. Work on C82G A111U A120G A145C C150A U176C yielded a reverse-splicing fitness of 0.0103. C82G A111U A120G A145C C150A U176G gave a reverse-splicing fitness of 0.00582. For C82G A111U A120G C150U C169U U176G, the reverse-splicing fitness was 0.00743. C82G A111U A120G C150U C169U U176A showed a reverse-splicing fitness of 0.0199. Variant C82G A111U A120G C150U C169U U176C has a reverse-splicing fitness of 0.0168. C82G A111U A120G A145C C169A U176C gave a reverse-splicing fitness of 0.00976. Variant C82G A111U A120G A145C C169A U176G has a reverse-splicing fitness of 0.00399. Variant C82G A111U A120G A145C C169A U176A has a reverse-splicing fitness of 0.0152. C82G A111U A120G A145G C150G C169G U176C gave a reverse-splicing fitness of 0.0116. Work on C82G A111U A120G A145G C150G C169G U176A yielded a reverse-splicing fitness of 0.0104. In the case of C82G A111U A120G A145G C150G C169G U176G, the reverse-splicing fitness is reported as 0.00621. With C82G A111U A120C U176C the reverse-splicing fitness was 0.0303. C82G A111U A120C U176G gave a reverse-splicing fitness of 0.00814. With C82G A111U A120C U176A the reverse-splicing fitness was 0.0172. For C82G A111U A120U A145C C150U C169A U176G, the reverse-splicing fitness was 0.00176. In the case of C82G A111U A120U A145C C150U C169A U176C, the reverse-splicing fitness is reported as 0.0022. In the case of C82G A111U A120U A145C C150U C169A U176A, the reverse-splicing fitness is reported as 0.00212. In the case of C82G A111U A120G A145U C150G U176G, the reverse-splicing fitness is reported as 0.0039. In the case of C82G A111U A120G A145U C150G U176C, the reverse-splicing fitness is reported as 0.0104. Variant C82G A111U A120G A145U C150G U176A has a reverse-splicing fitness of 0.00634. Work on C82G A111U A120C C169G U176A yielded a reverse-splicing fitness of 0.0203. Work on C82G A111U A120C C169G U176C yielded a reverse-splicing fitness of 0.0244. Work on C82G A111U A120C C169G U176G yielded a reverse-splicing fitness of 0.00577. With C82G A111U A120G C150G U176C the reverse-splicing fitness was 0.0117. For C82G A111U A120G C150G U176G, the reverse-splicing fitness was 0.00354. C82G A111U A120G C150G U176A showed a reverse-splicing fitness of 0.00658. For C82G A111U A120G A145U C150G C169A, the reverse-splicing fitness was 0.00944. Variant C82G A111U A120G A145U C150G C169U has a reverse-splicing fitness of 0.00825. Variant C82G A111U A120G A145U C150G C169G has a reverse-splicing fitness of 0.00774. In the case of C82G A111U A120G A145G C150U C169U U176C, the reverse-splicing fitness is reported as 0.0151. In the case of C82G A111U A120G A145G C150U C169U U176A, the reverse-splicing fitness is reported as 0.0169. C82G A111U A120G A145G C150U C169U U176G gave a reverse-splicing fitness of 0.00561. In the case of C82G A111U A120G A145U C150U C169U U176A, the reverse-splicing fitness is reported as 0.0188. In the case of C82G A111U A120G A145U C150U C169U U176G, the reverse-splicing fitness is reported as 0.00486. C82G A111U A120G A145U C150U C169U U176C gave a reverse-splicing fitness of 0.0167. Work on C82G A111U A120G A145G C169A U176G yielded a reverse-splicing fitness of 0.00491. With C82G A111U A120G A145G C169A U176C the reverse-splicing fitness was 0.0214. Work on C82G A111U A120G A145G C169A U176A yielded a reverse-splicing fitness of 0.0172. C82G A111U A120G A145U C150A C169U U176G gave a reverse-splicing fitness of 0.00528. For C82G A111U A120G A145U C150A C169U U176C, the reverse-splicing fitness was 0.0142. In the case of C82G A111U A120G A145U C150A C169U U176A, the reverse-splicing fitness is reported as 0.0183. Variant C82G A111U A120G C150U C169A has a reverse-splicing fitness of 0.0112. With C82G A111U A120G C150U C169U the reverse-splicing fitness was 0.0101. With C82G A111U A120G C150U C169G the reverse-splicing fitness was 0.0112.
